Assay results: patent US20240270826A1 (NATIONAL RESEARCH COUNCIL OF CANADA, published 2024)
Several values for one entry are separate records, joined by “and”; a condition that tells them apart may be missing. Equal entries are not always repeated.

Columns and labels:
[1] = target: T1, SARS-CoV-2 spike protein S on live virus, Wuhan (strain SARS-CoV-2/Canada/VIDO-01/2020) (SARS-CoV-2 (Wuhan), UniProt P0DTC2 14-1273); experiment: cell-based or functional assay
[2] = target: T1, SARS-CoV-2 spike protein S on live …; experiment: cell-based or functional assay; remark: listed apart in the source
[3] = target: T2, Human SARS-CoV-2_Wuhan S (SmT1) (SARS-CoV-2 (Wuhan), UniProt P0DTC2 14-1208); experiment: flow cytometry SVNA, VHH-Fc vs biotin-S binding to Vero E6 ACE2
[4] = target: T3, SARS-CoV-2 S on CHO-S cells (SARS-CoV-2, UniProt P0DTC2 14-1273); experiment: flow cytometry, CHO-S cells
T3 construct: whole, on cells

[5] = target: T4, SARS-CoV-2 S2 (aa686-1208) (Wuhan) (SARS-CoV-2 Wuhan, UniProt P0DTC2 686-1208); experiment: ELISA
T4 construct: NRC; FLAG, 6xHis tags

[6] = target: T5, SARS-CoV-2 S1-NTD (aa16-305) (SARS-CoV-2 Wuhan, UniProt P0DTC2 16-305); experiment: ELISA
SARS-CoV spike (S) = SARS-CoV spike (S) (SARS-CoV, UniProt P59594 14-1195); experiment: ELISA
[7] = target: T6, SARS-CoV-2 S1 (aa16-685) (Wuhan) (SARS-CoV-2 Wuhan, UniProt P0DTC2 16-685); experiment: ELISA
T6 construct: NRC; FLAG, 6xHis tags

[8] = target: Human SARS-CoV-2_Wuhan S (SmT1) (SARS-CoV-2 (Wuhan), UniProt P0DTC2 14-1208); experiment: flow cytometry SVNA: VHH-Fc inhibits S binding to ACE2 on Vero E6 cells
Human SARS-CoV S = Human SARS-CoV S (SARS-CoV, UniProt P59594 14-1190); experiment: as above
[9] = target: T2, Human SARS-CoV-2_Wuhan S (SmT1); experiment: flow cytometry SVNA, VHH vs biotin-S binding to Vero E6 ACE2
[10] = target: S1-Fc (SARS-CoV-2 S1 aa16-685, Wuhan, human IgG1 Fc) (SARS-CoV-2 (Wuhan); human, UniProt P0DTC2 16-685)
[11] = target: T6, SARS-CoV-2 S1 (aa16-685) (Wuhan); experiment: ELISA, coated antigen, apparent EC50
[12] = target: T7, SARS-CoV-2 spike trimer S (Wuhan, SmT1) (SARS-CoV-2 Wuhan); experiment: ELISA, coated antigen, apparent EC50
T7 construct: extracellular domain

[13] = target: T5, SARS-CoV-2 S1-NTD (aa16-305); experiment: ELISA, coated antigen, apparent EC50

B1: NRCoV2-02 VHH-Fc (Fc fusion)
chain: EVQLVESGGGLVQAGGSLRLSCAASGFTFSNYAMNWVRQAPGKGLEWVSGISGRGDDTRYADSVKGRFTISRDNAKNTLFLQMRSLRPEDTGVYRCTKGPDLYYFGSGYSDRGQGTQVTVSS
notes: bivalent VHH-Fc
[1]
  LVNA IC50: 0.12 nM
[2]
  MN100: ≤ 0.01 nM
[3]
  IC50: 5 nM
  IC99: 30 nM
  Imax %: 94%

B2: NRCoV2-SR01 VHH-Fc (Fc fusion)
chain: EVQLVQSGGGSVQAGGSLRLSCVASGFTFDNYAIGWFRQAPGKEREGVSCISGNGGVTIYADSVKGRFTISRDNAKNLVYLQMNSLKPEDTAVYYCAATGIRSTWSVYGCSRLAGPYDYWGQGTQVTVSS
notes: bivalent VHH-Fc
[1]
  LVNA IC50: 9.42 nM
[2]
  MN100: 6.25 nM
[3]
  IC50: 6.6 nM
  IC99: 56.9 nM
  Imax %: 59%

B3: NRCoV2-SR02 VHH-Fc (Fc fusion)
chain: EVQLVDSGGGLVQAGGSLRLSCTASEFTLNYYSIGWFRQSPGKEREGVSCIRYSGGGIDYADSVKGRFTISRDNAKNTVYLTMNSLKPEDTAVYYCAADRLYSRACPTAGGRNYWGQGTQVTVSS
notes: bivalent VHH-Fc
[1]
  LVNA IC50: 14.1 nM
[2]
  MN100: 6.25 nM
[3]
  IC50: 5.8 nM
  IC99: 49.8 nM
  Imax %: 53%

B4: NRCoV2-15 VHH-Fc (Fc fusion)
chain: EVQLVSSGGGLVEAGGSLRLSCIASGSTSGRNTMGWFRQAPGKQREWVAIVSTSGATNYAGSVKGRFTLSRDNAKNAVYLQMNNLKPEDTAVYYCYAAYGGGGDYWGQGTQVTVSS
notes: bivalent VHH-Fc
[4]
  Bmax: 21100
  EC50: 0.8 nM
[5]
  binding result: no binding (tested: 13 nM)
[6]
  binding result: no binding (tested: 13 nM)
SARS-CoV spike (S)
  binding result: no binding (tested: 13 nM)

B5: NRCoV2-17 VHH-Fc (Fc fusion)
chain: EVQLQQSGGGLVQTGGSLRLSCAAAGSPFSQLAMSWYRQISGKERAWVASISPTGNRSYSKIAKGRFTISRDNAKNTVTLQMTSLKPEDTAAYICQAANVNGGDYWGQGTQVTVSS
notes: bivalent VHH-Fc
[4]
  Bmax: 19000
  EC50: 0.4 nM
[5]
  binding result: no binding (tested: 13 nM)
[6]
  binding result: no binding (tested: 13 nM)
SARS-CoV spike (S)
  binding result: no binding (tested: 13 nM)

B6: NRCoV2-21 VHH-Fc (Fc fusion)
chain: EVQLVESGGGLVQPGGSLRLSCATSGFTLDYYAIGWFRQAPGKEREWVSCISSGGSTFYVDSVKGRFTISRDNAKDTVYLQMSSLKPDDTAVYYCAADHRGRSLRFGCSSSTTDYLYWGQGTQVTVSS
notes: bivalent VHH-Fc
SARS-CoV spike (S)
  binding result: no binding (tested: 13 nM)

B7: NRCoV2-S2B3 VHH-Fc (Fc fusion)
chain: QVQLVDSGGGLVQAGGSLRLSCAASASTFGDSAMGYYRQAPGKQRELVATISTGSNTNYADSVKGRFTISRDDAKNTVYLQMNSLKPEDTAVYYCNYRSIYYGQNFWGQGTQVTVSS
notes: bivalent VHH-Fc
[4]
  Bmax: 6660
  EC50: 6.5 nM
SARS-CoV spike (S)
  binding result: no binding (tested: 13 nM)

B8: NRCoV2-MRed11 VHH-Fc (Fc fusion)
chain: EVQLVESGGGLVQAGGSLRLSCAASGFTFSSYAMSWHRQAPGKGLEWVSAINSGGGSTSYADSVKGRFAISRDNAKNTLYLQMNSLKPEDTAVYYCATTISDGSSWSTKSYRGQGTQVTVSS
notes: bivalent VHH-Fc
[4]
  Bmax: 3250
  EC50: 2.9 nM
[7]
  binding result: no binding (tested: 13 nM)
[6]
  binding result: no binding (tested: 13 nM)
SARS-CoV spike (S)
  binding result: no binding (tested: 13 nM)

B9: NRCoV2-SR03 VHH-Fc (Fc fusion)
chain: AVQLVDSGGGLVQAGGSLRLSCAASGSIFSNNHMGWYRQAPGKQRELVAAISSGGKTNYADFAKGRFTISRDNAKNMVYLQMNSLKPEDTAVYYCNRGGWEYRSSYYIMGPHWGQGTQVTVSS
notes: bivalent VHH-Fc
[4]
  Bmax: 19900
  EC50: 7.1 nM
[5]
  binding result: no binding (tested: 13 nM)
SARS-CoV spike (S)
  binding result: no binding (tested: 13 nM)

B10: NRCoV2-SR04 VHH-Fc (Fc fusion)
chain: QVQLVESGGGLVQAGGSLRLSCAASGRTFSSHTVGWYRQAPGKQRDLVAAISMGGNTNYADYADSVKGRFTISRDNAKNTLYLQMNSLKPEDTAVYYCNTAALVGNRLLPMATITWGQGTQVTVSS
notes: bivalent VHH-Fc
[4]
  Bmax: 10100
  EC50: 8.2 nM
[5]
  binding result: no binding (tested: 13 nM)
SARS-CoV spike (S)
  binding result: no binding (tested: 13 nM)

B11: NRCoV2-07 VHH-Fc (Fc fusion)
chain: QVQLVQSGGGLVQPGGSLRLSCAASGVTLDYYAIGWFRQAPGKEREAVSCISSNGRRNHYVASVRGRFTISRDNAKSTVYLQMNSLKPEDTAVYYCAAVQDVHGDNYYCTSPNEYNVWGQGTQVTVSS
notes: bivalent VHH-Fc
[8]
  IC50: 4.7 nM
Human SARS-CoV S
  IC50: 4.2 nM

B12: NRCoV2-20 VHH-Fc (Fc fusion)
chain: EVQLQQSGGGLVQPGGSLRLSCAASGRTFSNYVVGWFRQAPQAPGKDHEFVAVISGSDTETYYADSVKGRFTISRDNAKNTVYLQMNSLKPEDTAVYYCAADRGMSYYYTRATEYYYWGQGTQVTVSS
notes: bivalent VHH-Fc
[8]
  IC50: 6.5 nM
Human SARS-CoV S
  IC50: 10.3 nM

B13: NRCoV2-12 VHH-Fc (Fc fusion)
chain: EVQLQQSGGGLVQAGGSLRLSCAASGRTFRNYVMGWFRQAPQAPGKDHEFVAAISWGGTEIYYADSVKGRFTISRDNAKNTVYLQMNSLKPEDTAVYYCAADRGLSYYYTRTTEYNYWGQGTQVTVSS
notes: bivalent VHH-Fc
[8]
  IC50: 3.5 nM
Human SARS-CoV S
  IC50: 3.1 nM

B14: NRCoV2-18 VHH-Fc (Fc fusion)
chain: EVQLVESGGGLVQAGGSLRLSCVASGITISGYNMAWWRQTRGKQTERVAFINSGGSTTYSDSVKGRFTISRDNGKNTAYLQMNSLNAEDTADYFCSLHTSHDYWGQGTQVTVSS
notes: bivalent VHH-Fc
[8]
  IC50: 9.1 nM
Human SARS-CoV S
  IC50: 12.7 nM

B15: NRCoV2-MRed04 VHH-Fc (Fc fusion)
chain: EVQLVESGGGLVQPGRSLRLSCAASGNSFSISTMGWFRQAPGKERELVASIWSDTTTSYADSVKGRFTISTDNTRTKVYLQMSSLNPEDTAVYYCAADRGFVVRGQYDYWGQGTQVTVSS
notes: bivalent VHH-Fc
[8]
  IC50: 5 nM
Human SARS-CoV S
  IC50: 24.6 nM

B16: NRCoV2-11 VHH-Fc (Fc fusion)
chain: EVQLVSSGGGLVQPGGSLRLSCAASGSSLDSYSVSWFRQAPGKEREWISFISRYYSSTYYTDSVKGRFTTSRDGDQKTVHLQMNSLKPEDTAVYYCAARSRDFSSPFSATDTYTSWGQGTQVTVSS
notes: bivalent VHH-Fc
[8]
  IC50: 3.2 nM
Human SARS-CoV S
  IC50: 7.7 nM

B17: NRCoV2-SR01 VHH-Fc (Fc fusion)
chain: EVQLVQSGGGSVQAGGSLRLSCVASGFTFDNYAIGWFRQAPGKEREGVSCISGNGGVTIYADSVKGRFTISRDNAKNLVYLQMNSLKPEDTAVYYCAATGIRSTWSVYGCSRLAGPYDYWGQGTQVTVSS
notes: bivalent VHH-Fc
[8]
  IC50: 4.2 nM
Human SARS-CoV S
  IC50: 5.1 nM

B18: NRCoV2-SR13 VHH-Fc (Fc fusion)
chain: EVQLVESGGGLVTTGGSLRLSCATSGSRFGSKHMAWYRQAPGKQRDLVAAISSGGSTHYGSSVKGRFTISRDNAKSTVYLQMNSLNPEDTAVFYCNMGGWDYRSNTYIPGSRSDYWGQGTQVTVSS
notes: bivalent VHH-Fc
[8]
  IC50: 7.7 nM
Human SARS-CoV S
  IC50: 15 nM

B19: NRCoV2-1d VHH (VHH)
VHH: EVQLVESGGGSVQPGGSLRLSCAASGSTLDYYAIGWFRQAPGKEREWVSSVSSSDGNTLYADSVKGRFTISRDNAKNTVYLQMNSLKAEDTAVYVCAADYSMRPFAVGRWHRDYEYWGQGTQVTVSS
[9]
  IC50: 8.6 nM
  IC99: 40.8 nM
  Imax %: 72%
[10]
  EC50: 1.1 nM and 1.3 nM

B20: NRCoV2-11 VHH (VHH)
VHH: EVQLVSSGGGLVQPGGSLRLSCAASGSSLDSYSVSWFRQAPGKEREWISFISRYYSSTYYTDSVKGRFTTSRDGDQKTVHLQMNSLKPEDTAVYYCAARSRDFSSPFSATDTYTSWGQGTQVTVSS
[10]
  EC50: 0.2 nM

B21: NRCoV2-MRed07 VHH-Fc (Fc fusion)
chain: EVQLVESGGGLVQPGGSLTLSCAASGSIGPFNTMGWYRQAPGNQREPAAIITRGGVTNYADSVKGRFTISRDNAKNAVYLQMDSLKPDDTAVYYCYANYGWAIPYWGNGTQVTVSS
notes: bivalent
[11]
  EC50: 1.5 nM
[12]
  EC50: 1.2 nM
[13]
  EC50: 0.8 nM
